Test results from paper PMC8571082.

B1: factor inhibiting HIF-1 (FIH-1), full-length [human] / Mint3NT, N-terminal fragment (1–214) of Mint3 [human] (parent)
chain 1: MDFPTISRSPSGPPAMDLEGPRDILVPSEDLTPDSQWDPMPGGPGSLSRMELDESSLQELVQQFEALPGDLVGPSPGGAPCPLHIATGHGLASQEIADAHGLLSAEAGRDDLLGLLHCEECPPSQTGPEEPLEPAPRLLQPPEDPDEDSDSPEWVEGASAEQEGSRSSSSSPEPWLETVPLVTPEEPPAGAQSPETLASYPAPQEVPGPCDHED
chain 2: MAATAAEAVASGSGEPREEAGALGPAWDESQLRSYSFPTRPIPRLSQSDPRAEELIENEEPVVLTDTNLVYPALKWDLEYLQENIGNGDFSVYSASTHKFLYYDEKKMANFQNFKPRSNREEMKFHEFVEKLQDIQQRGGEERLYLQQTLNDTVGRKIVMDFLGFNWNWINKQQGKRGWGQLTSNLLLIGMEGNVTPAHYDEQQNFFAQIKGYKRCILFPPDQFECLYPYPVHHPCDRQSQVDFDNPDYERFPNFQNVVGYETVVGPGDVLYIPMYWWHHIESLLNGGITITVNFWYKGAPTPKRIEYPLKAHQKVAIMRNIEKMLGEALGNPQEVGPLLNTMIKGRYN

Variants of: B1
Assay: ITC
Details: with Mint3NT, measured three times for each FIH-1 mutant

screen value	Variant
-121 kJ/mol	chain 2 Y71A
84.5 kJ/mol	chain 2 K75A
89.5 kJ/mol	chain 2 N171A

The next lines start with the variant.

Variant	screen value
chain 2 E79A	-119 kJ/mol
chain 2 D248A	-119 kJ/mol
chain 2 E250A	84.1 kJ/mol
chain 2 E29A	81.6 kJ/mol
